Data published in US20110027907A1 (AUCKLAND UNISERVICE, published 2011).

Target: T1, recombinant SSL7 (GL1 S. aureus Greenlane), wild type (Staphylococcus aureus)
T1 construct: also called rSSL7; SET1 GL1
Test: co-crystal structure

B1: recombinant IgA Fc (Cys242 to Pro455 of human IgA1) (other)
chain: CHPRLSLHRPALEDLLLGSEANLTCTLTGLRDASGVTFTWTPSSGKSAVQGPPERDLCGCYSVSSVLPGCAEPWNHGKTFTCTAAYPESKTPLTATLSKSGNTFRPEVHLLPPPSEELALNELVTLTCLARGFSPKDVLVRWLQGSQELPREKYLTWASRQEPSQGTTTFAVTSILRVAAEDWKKGDTFSCMVGHEALPLAFTQKTIDRLAGKP
notes: range 242-455
B1: binds.
